Laboratory results taken from the supplement of paper PMC10567573.

B1: EIF5 (parent)
chain: KQTIGNSCKACGYRGMLDTHHKLC
B2: CCDC89 (parent)
chain: LNAELEEKMMQEAEKLKAQGEYSR

Variants of: B1
Assay: protein stability index of a GFP-peptide fusion (GPS, HEK-293T) (PSI 1-6); higher = more stable
Conditions: c terminus: a fixed tail appended
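Also: lentivirally expressed fusions sorted by FACS into six bins by GFP to DsRed ratio, PSI derived from sequencing read proportions per bin multiplied by bin number.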

Variant | protein stability index
N6L | 2.96
N6G | 3.33
N6T | 3.66
N6P | 3.12
N6Y | 3.92
N6A | 3.1
N6K | 3.11
N6V | 3.52
N6H | 3.03
N6I | 3.84
N6E | 3.62
N6D | 3.63
N6R | 2.84
N6Q | 3.95
N6W | 2.62
D18G | 2.81
D18K | 2.46
D18E | 3.35
D18M | 2.56
D18N | 2.88
D18V | 2.39
D18Q | 2.29
D18W | 1.99
D18R | 2.65
D18P | 2.71

Variant | protein stability index
D18A | 2.85
D18L | 2.38
D18F | 2.08
D18I | 2.24
D18T | 2.96
D18Y | 2.09
H20Q | 2.5
H20M | 1.23
H20L | 2.24
H20P | 2.47
H20A | 2.24
H20Y | 2.09
H20R | 2.28
H20N | 2.92
H20E | 3.24
H20F | 2.07
H20K | 2.61
H20G | 2.56
H20D | 3.64
G5R | 2.53
G5N | 3.44
G5P | 3.41
G5Y | 2.81
G5W | 2.34
G5S | 2.95

Variant | protein stability index
G5I | 3.12
G5L | 2.37
G5E | 4.09
G5V | 3.46
G5H | 2.96
G5K | 3.26
G5D | 3.53
Y13E | 3.75
Y13V | 2.91
Y13D | 3.03
Y13I | 2.16
Y13A | 3.7
Y13W | 2.45
Y13Q | 3.29
Y13H | 2.77
Y13L | 2.94
G12C | 2.56
G12L | 1.92
G12F | 1.73
G12Y | 2.14
G12P | 1.84
G12M | 2.76
G12D | 2.13
G12A | 1.37
G12N | 2.25

Variant | protein stability index
G12W | 1.78
G12H | 2.36
G12S | 1.52
G12R | 2.66
G12I | 2.29
G15C | 2.44
G15V | 2.12
G15E | 2.24
G15H | 3.1
G15Y | 2.59
G15K | 2.11
G15P | 2.93
G15L | 2.44
G15W | 1.52
G15D | 2.94
G15M | 1.84
L17Q | 3.85
L17M | 2.96
L17E | 3.98
L17G | 3.77
L17R | 3.44
L17W | 2.31
L17D | 4.68
L17T | 3.91
L17Y | 3.1

Variant | protein stability index
L17V | 2.6
L17P | 3.88
L17N | 3.65
L17C | 4.42
S7V | 3.72
S7R | 3.11
S7L | 4.11
S7G | 3.5
S7M | 3.58
S7A | 3.96
S7K | 3.93
S7F | 3.91
S7C | 3.5
S7I | 4.31
T3Y | 3.35
T3R | 3.18
T3S | 3.19
T3P | 3.66
T3L | 3.23
T3N | 3.31
T3F | 2.86
T3G | 3.15
T3I | 2.71
T3M | 3.5
T3D | 4.01

Variant | protein stability index
C8W | 1.95
C8K | 2.28
C8N | 2.78
C8T | 2.05
C8D | 2.48
C8G | 2.03
C8V | 1.78
C8M | 1.86
C8Q | 1.91
C24D | 2.25
C24W | 2.21
C24V | 2.35
C24Q | 2.22
C24M | 2.81
C24N | 1.91
C24H | 1.9
C24A | 1.99
C24R | 1.38
C24L | 1.92
C24I | 2.07
C24E | 2.11
C24K | 2.15
C24G | 1.63
M16P | 4.45
M16D | 4.72

Variant | protein stability index
M16V | 3.27
M16W | 2.62
M16H | 4.16
M16T | 4.14
M16I | 3.07
M16R | 3.29
M16L | 3.51
M16E | 4.14
M16G | 3.91
M16S | 3.8
M16F | 2.58
Q2F | 2.54
Q2T | 3.05
Q2I | 2.51
Q2D | 2.84
Q2A | 3.48
Q2L | 2.61
Q2M | 2.85
Q2E | 3.74
Q2S | 3.05
Q2H | 3.6
Q2G | 3.22
Q2N | 3.02
Q2Y | 2.19
Q2V | 3

Variant | protein stability index
I4F | 3.02
I4S | 3.75
I4R | 3.31
I4M | 3.63
I4T | 3.29
I4E | 3.92
I4Q | 4.17
I4Y | 3.08
I4K | 3.41
I4N | 3.63
I4A | 3.68
I4V | 3.57
I4H | 3.39
I4L | 3.73
T19E | 3.62
T19F | 2.17
T19Q | 3.03
T19S | 3.1
T19H | 3.43
T19I | 2.68
T19R | 2.79
T19C | 3.45
T19N | 3.81
T19M | 3.03
T19P | 2.81

Variant | protein stability index
L23N | 3.83
L23P | 3.28
L23C | 4.27
L23S | 4.18
L23T | 4.03
L23Y | 3.89
L23K | 3.36
L23Q | 3.82
L23F | 3.64
L23H | 4.67
L23R | 3.4
H21P | 3.17
H21I | 2.88
H21Y | 3.32
H21C | 3.17
H21W | 2.45
H21F | 2.35
H21R | 3
H21T | 3.17
H21N | 3.25
H21K | 3.02
H21Q | 2.51
H21A | 2.7
H21D | 3.75
H21M | 2.89

Variant | protein stability index
C11H | 1.53
C11S | 1.9
C11G | 1.69
C11I | 1.52
C11W | 2.06
C11K | 1.88
C11R | 1.61
C11F | 2.17
C11P | 1.92
C11N | 1.94
C11V | 2.88
C11M | 1.73
C11Y | 2.4
K9Y | 2.61
K9V | 3.13
K9R | 2.79
K9N | 2.79
K9A | 3.57
K9F | 2.16
K9T | 3.3
K9E | 3.5
K9I | 2.97
K9S | 2.88
K9Q | 3.11
K9C | 3.97

Variant | protein stability index
K1G | 3.35
K1A | 2.98
K1R | 3.18
K1Q | 3.14
K1S | 3.31
K1V | 2.95
K1F | 2.55
K1N | 3.22
K1M | 2.36
K1W | 3.05
K1L | 2.9
K1D | 3.88
K22Q | 2.76
K22A | 2.77
K22E | 2.96
K22H | 3.37
K22M | 3.09
K22N | 2.93
K22Y | 2.73
K22P | 3.79
K22F | 2.46
K22T | 2.99
K22W | 2.17
R14Q | 3.35
R14E | 3.1

Variant | protein stability index
R14H | 3.42
R14P | 3.69
R14S | 3.51
R14G | 3.29
R14F | 3.14
R14A | 2.93
R14T | 3.52
R14Y | 2.64
R14M | 2.97
R14D | 3.41
R14W | 2.12
A10L | 3.3
A10N | 2.85
A10Q | 3
A10R | 3.27
A10T | 3.36
A10Y | 4.03
A10D | 3.68
A10P | 2.63
A10H | 4.19
A10E | 4.16

Variants of: B2
Assay: as above
Conditions: c terminus: a fixed tail appended

Variant | protein stability index
S23A | 4.62
S23Y | 4.47
S23K | 4.92
S23G | 5.13
S23Q | 5.04
S23V | 4.43
S23I | 4.19
S23N | 4.51
S23H | 3.95
S23D | 5.7
S23W | 4.97
S23F | 4.75
S23L | 5.2
S23M | 5.11
S23C | 4.73
S23T | 4.98
Y22M | 5.29
Y22Q | 5.64
Y22S | 5.28

Variant | protein stability index
Y22I | 5.29
Y22L | 5.34
Y22K | 5.55
Y22N | 5.79
R24P | 5.48
R24N | 5.03
R24S | 5.38
R24M | 4.99
R24A | 5.49
R24G | 5.81
R24V | 5.64
R24Q | 4.63
R24D | 5.67
R24W | 3.81
R24I | 4.86
R24K | 5.53
R24C | 5.37
R24F | 4.66
R24H | 5.78
